B1: TPR t1 (parent)
chain: GACCAAUCUGCCCUCAGAGCUCGAGAACAUCUUCGGAUGCAGAGGAGGCAGGCUUCGGUGGCGCGAUAGCGCCAACGUCCUCAACCUCCAAUGCAUCCCACCACAUGAUGAUGCCUGAAGAGCCUUGGUUUUUUG

Variants of: B1
Assay: polymerase ribozyme fitness, log enrichment relative to wild type (log ratio); higher = more active; in vitro selection for triplet polymerase activity
Outline: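 A heterodimeric triplet polymerase ribozyme had each of its subunits mutagenized by PCR into a library, which was transcribed. One round of in vitro selection, done in triplicate, annealed each library with a biotinylated primer, its partner subunit and triplets, then incubated it frozen at −7 °C before gel excision of extended constructs, streptavidin-bead capture and RT-PCR. Fitness is the logarithm of genotype enrichment relative to wild-type enrichment, based on Illumina sequencing of inputs and outputs and inverse-variance-weighted replicate averages. A base-2 logarithm is used, and genotypes were kept only with ≥10 input reads and ≥1 read per output.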

Variant	polymerase ribozyme fitness (log ratio)
A41U G113U	-3.98
C72G C79G U133A	-1.07
G23U C64U	-4.56
C62G U78C	-1.87
A2U C11U G45A U81C	-6.34
C40U G42A G63C U125G	-2.99
G61A C123G	1.69
G44C C76U U81G	-5.45
G71C C97U G117C	-5.75
A37U G44C C53G U55C G61A C89U G117C	-4.88
U106A A111C	-1.96
C20A G42U G47U C53U	-3.95
C79G G93U C115G	-4.32
C49G G60C A119U U133A	-2.93
C64A C88G	-6.08
C20U C40U G60U C82A U96A C124A	-1.54
C4G U9A U78C U87G C104A C123U	-2.05
A121U G135C	2.99
C11U C15A A16C U33G C49G G60A G65A C79A A90C U109A	-8.01
U21A C53G C64U U106C	-0.936
G47C C56A G110U	-5.35
C40G G71A U125A	-2.35
A43U C70U	-2.1
A119U U132A	-0.132

Variant	polymerase ribozyme fitness (log ratio)
A29G G61U C85A C102U	-5.28
G61U A90U	-2.11
A16U G23U G61A A84C C114A G117U	-6.96
C3A U21A G71U	-2.65
G44U U54A U55C	-2.01
C3U C62A C72U	-0.819
G61A A84U C94A U131C	-0.628
A18C G60C	-2.9
A16U A18U	-3.06
C3A U38A A121C U129A	-0.064
C53U G60C U87A	-1.09
A5C C8G C40U U112G U133G	-0.864
C12A G107C A119C G120A	-4.18
A27G G42A C73G	-5.22
C22A U112A C114G	-1.84
U21A G39U G48A A74U U78G	-2.09
C89U A108G C114U	-4.44
G71U U129A	-1.8
A6C C8G U92G A121C C123G	0.289
U9A C12A A16C A26U G47U	-5.44
U7G C80U	0.145
G39U C86A U106A	-2.01
C40G A50U G63C	-2.25
A6C U131A	-0.317

Variant	polymerase ribozyme fitness (log ratio)
C56G U87A C115U	-1.94
U87C C89G	-1.1
C13U G39C G63U U125G U133A	-2.15
C11A C40U G69U A83G G117U G127C U133G	-4.24
C11U C15U A16C G42A	-2.92
G52A G69C C72U A95C	-1.66
A6U U9G G63C C104U C115U G117U	-1.31
A2C G10A C13U G69C	-3.6
C20U	-1.26
C22U C115U	-4.01
G44A G60A	-0.624
C56A G63A G93A A100C C124U	-4.2
A5G G51A A84C C89U U106A U112C	-2.68
C56G G110U G135C	-1.62
C22U G52A A84C C104U	-5.74
G36A C53A U54G G120C	0.74
A43U G77U C88G	-2.17
G63C C88U	-1.29
U54G G57C	-1.44
A83C C85A C115A G117A	-6.05
G19A C73A A105U C114U U116G	-5.41
G45A G93C	-1.29
C73A C88U C114G A118U	-3.36
C12G C72U	0.127

Variant	polymerase ribozyme fitness (log ratio)
A46U G63A	-1.91
G57A G63U	-2.43
C8G C34U G39U G58A A84U	-5.29
U7C G45U G60A C82G C85G G117A	-3.81
G71C C124U	0.16
C12U A119C A121C	-2.21
G35A C72G U112C	-2.35
U9C A16U C72G C88A A95C A111U	-6.59
U30C G58C	-2.83
C53U C73G G113C	-4.51
C11G G17U G61A A105G	-6.42
G10A C53A G71C C104U G110A C114G	-6.44
A6C G36A A66G C72G C76U U78A	-4.1
A37U C49U C64U C114U	-3.02
C11G G39C A74U C115U	-2.3
C20U U33A	-5.51
G48C C62A G65U U78C U130C	-4.95
G63A C102U C114A	-6.03
C8G A41C G63U G113A A118G	-3.33
G47C A84C	-0.862
U112G A118G	0.909
C49G A74C G113A	-2.39
G52U U106A	-0.189
A118U U133A	-1.21

Variant	polymerase ribozyme fitness (log ratio)
U9G C123U	0.831
C56A G128U	-2.53
A26U C53U A74G G77U U125A	-4.77
A46U G60C	-0.894
C89U G117A U129A	-3.55
C70U C72A C85A	-2.03
C4U G48U G93A	-2.39
G57U A105G G113A	-4.1
G61A U92A C123A G127U	-1.55
C11A C20U C34A C53A C94G A121U	-3.61
G45C G65U G71A A74G	-5.88
C8G A18C G36U C72A U78G C82A C85G	-5.25
C40G C49A C64U A119U U126A	-3.13
C88U C94U	-1.32
G58A G61A G93A G113C U125C G135A	-2.01
C73G G77U C114U	-3.31
C34U U125A	-4.8
C40G C56A	-1.63
G39A C64U C124A	1.06
A2C C15U C56U U129C	-1.75
C22U A50C C124A	-3.54
C31A G61A C88U	-5.76
G60C C114A C115G G122C U133C	-4.6
C4G C12G	-1.12

Variant	polymerase ribozyme fitness (log ratio)
G36C G69A G71A U81G C88A G93C C99A C123U	-6.5
C3U U7A U54C A95G U112A	0.973
G117A U130A	-2.15
A2C C88G C104A U112G	-4.8
A41U C56A	-1.52
C12U C62G G122U	-0.331
A50C C97G	-6.04
A2G C28U G110U	-2.63
G36U C53G C56A C72G	-3.23
C8A C79U C88G C102U	-2.19
C8G C12A U109A A119C A121G	-5.47
G35C A46C C97U	-6.04
C70U C97U U106A G127U	-1.69
G48A C64U U78C G107U	-6.15
C12A C73U C76A G120C	-0.37
G71C C85U	-2.23
C13G A37G G71U C102G A103U U112A G117U G127C U130G	-6.56
G71C G77C C114G U116G	-5.32
C8U C11U A29U C70A	-3.03
C49A C62U A66G	-1.75
C11G G122A	0.352
U87A U106G	-1.35
U55A A111U	-2.8
G71C C82A U112A A118U	-0.627

Variant	polymerase ribozyme fitness (log ratio)
A5U U55G A95U U129G	-1.03
C11U U78G A95C G113U C114G	-4.56
G47U C56U C72U U116C	-3.11
U59C C114A U130A	-2.23
G48U C49U A91C	-2.49
A27G A46G C72U	-3.52
A75U C76G C88G C89U A90G	-2.47
C70U C88U	-0.847
G52A U55A A74U G120C C123A C124U G135A	-0.0228
G19A G48U C53G G58U U59A	-3.69
C53A U59C A105U	-2.61
A43C C56U	-2.57
G45A C70U	-1.29
C88G G120A A121C G135U	-0.939
A41U G45U	-1.99
U9C C53G C114U U116A C123A U130C	-7.66
C53A C80U U106A G135U	-3.96
G48U C79G	-3.52
C73A C97U	-0.11
G42U C53U	-1.85
U9A C115G	1.95
C8U A43C C94U U130A	-2.21
G44C U55C	-1.02
